The record followed here is patent publication US20260077065A1, “Compositions and Methods for Assessing Kinase Activity” (The Board of Trustees of the Leland Stanford Junior …, priority 2022, published 2026).

Assay [1] concerns the target ERK substrate (Cdc25C substrate sequence with second phosphorylation site, V-3S). As to the kind of experiment: cell-based or functional assay.
The target in assay [2] is SmBiT(ΔC3) (NanoBiT small fragment truncated by 3 amino acids at the C-terminus). As to the kind of experiment: cell-based or functional assay.

In turn, “WW phospho-binding domain with F25A mutation (from UniProt Q13526 1-54)” returned an induction of luminescence by Vx-11e (bKiMBI) in assay [1] above 10 fold.
In assay [1], “WW phospho-binding domain (proline-directed WW phospho-binding domain from Pin1) (from UniProt Q13526 1-54)” gave an induction of luminescence (ΔC3 V-3S) of 8.8 fold.
As to “LgBiT (NanoBiT large fragment of NanoLuc), ΔN2 (enzyme)”, the response (luminescence induction by ERK inhibition) of the reporter with truncated SmBiT in assay [2] was 300%.
